In patent publication US20250154277A1 (CONCEPT TO MEDICINE BIOTECH, published 2025):
Where two headings read alike, the source gives them in different places.

Assays:
human 5T4-His protein [1] = biological target: T1, human 5T4-His protein (human, UniProt Q13641 32-355); experiment: ELISA, coated 5T4-His
T1 construct: also called recombinant 5T4 protein (human 5T4-his tag); human 5T4 protein; not shown: His tag
T1 sequence (looked up): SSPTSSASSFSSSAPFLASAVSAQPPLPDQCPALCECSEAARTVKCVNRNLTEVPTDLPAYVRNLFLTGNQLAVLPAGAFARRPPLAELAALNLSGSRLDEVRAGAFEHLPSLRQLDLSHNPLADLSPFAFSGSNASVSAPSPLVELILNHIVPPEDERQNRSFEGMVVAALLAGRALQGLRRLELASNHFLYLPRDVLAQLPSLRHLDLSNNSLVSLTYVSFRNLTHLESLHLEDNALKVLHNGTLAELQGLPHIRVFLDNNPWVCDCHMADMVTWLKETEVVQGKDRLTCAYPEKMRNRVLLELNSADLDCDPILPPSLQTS
Experimental: To evaluate the binding activity of clones, the 286B4 chimeric antibody along with 286B4 humanized mAbs were subjected to ELISA test.
(§1) Briefly, microtiter plates were coated with human 5T4-His protein at 1 μg/ml in PBS, 100 μl/well at 4° C. overnight, then blocked with 150 μl/well of 1% BSA. 4-fold dilutions of tested antibodies starting from 20 nM were added to each well and incubated for 1 hour at 37° C. The plates were washed with PBS/Tween and then incubated with Goat Anti-Human IgG-HRP for 30 mins at 37° C. After washing, the plates were developed with TMB substrate and analyzed by spectrophotometer at OD 450 nm. As shown in FIG. 16 and Table 15, most of the humanized clones bound to human 5T4 with high potency.

human 5T4-His protein [2] = biological target: T1, human 5T4-His protein; experiment: SPR Biacore, Protein A capture
Experimental: The binding of the 393E9 humanized antibodies to recombinant 5T4 protein (human 5T4-his tag) was tested with Biacore using a capture method. The mAbs were captured using Protein A chip. A serial dilution of human 5T4-his tag protein was injected over captured antibody for 3 mins at a flow rate of 30 μl/min. The antigen was allowed to dissociate for 280-800 s. All the experiments were carried out on a Biacore T200. Data analysis was carried out using the Biacore T200 evaluation software.

human 5T4-His protein [3] = biological target: T1, human 5T4-His protein; experiment: ELISA, coated 5T4-His; remark: listed apart in the source
Experimental: To evaluate the binding activity of 393E9 humanized antibodies to human 5T4, the 393E9 chimeric antibody (393E9-C) along with 393E9 humanized mAbs were subjected to ELISA test.
as §1, with “of” for “of tested”, “12” for “16”, “9,” for “15,”, “antibodies” for “clones”, “activity.” for “potency.”

B1: Hu286B4-1 (antibody, V domains shown)
VH: EVQLQESGPGLVKPSDTLSLTCAVSGYSISNNYYWNWIRQPPGKGLEWIGYITYDGSNNYNPSLKNRVTMSRDTSKNQFSLKLSSVTAVDTAVYYCARGGGQLRFDYWGQGTTVTVSS
VL: DIQMTQSPSSLSASVGDRVTITCKASQSVSNEVTWYQQKPGKAPKLLIYYASNRYTGVPDRFSGSGSGTDFTFTISSLQPEDIATYYCQQDYSSPWTFGGGTKVEIK
notes: humanized
Human 5T4-His protein [1]
  EC50: 3.81 nM

B2: Hu286B4-2 (antibody, V domains shown)
VH: EVQLQESGPGLVKPSDTLSLTCAVSGYSISNNYYWNWIRQPPGKGLEWIGYITYDGSNNYNPSLKNRVTMSRDTSKNQFSLKLSSVTAVDTAVYYCARGGGQLRFDYWGQGTTVTVSS
VL: DIQMTQSPSSLSASVGDRVTITCKASQSVSNEVTWYQQKPGKAPKMLIYYASNRYTGVPDRFSGSGSGTDFTFTISSLQPEDIATYYCQQDYSSPWTFGGGTKVEIK
notes: humanized
Human 5T4-His protein [1]
  EC50: 1.35 nM

B3: 393E9_hVH4_hVL5 (antibody, V domains shown)
VH: EVQLVESGGGLVQPGGSLRLSCAASGFTFTDYYMSWVRQAPGKGLEWVGFIRNKGNGYTTENSASVKGRFTISRDNSKSSLYLQMNSLKTEDTAVYYCARYRGNPHYAMDYWGQGTLVTVSS
VL: EIVLTQSPGTLSLSPGERATLSCRASESVEFYGTSFLQWYQQKPGQAPRLLIYGASNVESGIPDRFSGSGSGTDFTLTISRLEPEDIAVYFCQQSRKVPSTFGGGTKVEIK
notes: humanized; also called Hu393E9-45
Human 5T4-His protein [2]
  Kd: 0.595 nM
  koff: 0.000129 s⁻¹
  kon: 217000 M⁻¹ s⁻¹
Human 5T4-His protein [3]
  EC50: 0.22 nM

B4: 393E9_hVH1_hVL4 (antibody, V domains shown)
VH: EVQLVESGGGLVQPGGSLRLSCAASGFTFTDYYMSWVRQAPGKGLEWVGFIRNKGNGYTTENSASVKGRFTISRDNSKSTLYLQMNSLRAEDTAVYYCARYRGNPHYAMDYWGQGTLVTVSS
VL: DIVLTQSPLSLPVTPGEPASISCRASESVEFYGTSFLQWYLQKPGQSPQLLIYGASNVESGVPDRFSGSGSGTDFTLKISRVEAEDIGVYFCQQSRKVPSTFGGGTKVEIK
notes: humanized
Human 5T4-His protein [2]
  Kd: 0.599 nM
  koff: 0.000119 s⁻¹
  kon: 199000 M⁻¹ s⁻¹
Human 5T4-His protein [3]
  EC50: 0.13 nM

B5: 393E9_hVH5_hVL3 (antibody, V domains shown)
VH: EVQLVESGGGLVQPGRSLRLSCTASGFTFTDYYMSWVRQAPGKGLEWVGFIRNKGNGYTTENSASVKGRFTISRDNSKSILYLQMNSLKTEDTAVYYCARYRGNPHYAMDYWGQGTLVTVSS
VL: DIQLTQSPSSLSASVGDRVTITCRASESVEFYGTSFLQWYQQKPGKAPKLLIYGASNVESGVPSRFSGSGSGTDFTLTISSLQPEDIATYFCQQSRKVPSTFGGGTKVEIK
notes: humanized; also called Hu393E9-53
Human 5T4-His protein [2]
  Kd: 0.7 nM
  koff: 0.000119 s⁻¹
  kon: 170000 M⁻¹ s⁻¹
Human 5T4-His protein [3]
  EC50: 0.12 nM

B6: 393E9_hVH6_hVL3 (antibody, V domains shown)
VH: EVQLVESGGGLVQPGGSLRLSCAASGFTFTDYYMSWVRQAPGKGLEWVGFIRNKGNGYTTENSASVKGRFTISRDNAKSSLYLQMNSLRAEDTAVYYCARYRGNPHYAMDYWGQGTLVTVSS
VL: DIQLTQSPSSLSASVGDRVTITCRASESVEFYGTSFLQWYQQKPGKAPKLLIYGASNVESGVPSRFSGSGSGTDFTLTISSLQPEDIATYFCQQSRKVPSTFGGGTKVEIK
notes: humanized
Human 5T4-His protein [2]
  Kd: 0.691 nM
  koff: 0.000124 s⁻¹
  kon: 179000 M⁻¹ s⁻¹
Human 5T4-His protein [3]
  EC50: 0.052 nM

B7: 393E9_hVH2_hVL3 (antibody, V domains shown)
VH: EVQLVESGGGLIQPGGSLRLSCAASGFTFTDYYMSWVRQPPGKGLEWVGFIRNKGNGYTTENSASVKGRFTISRDNSKSTLYLQMNSLRAEDTAVYYCARYRGNPHYAMDYWGQGTLVTVSS
VL: DIQLTQSPSSLSASVGDRVTITCRASESVEFYGTSFLQWYQQKPGKAPKLLIYGASNVESGVPSRFSGSGSGTDFTLTISSLQPEDIATYFCQQSRKVPSTFGGGTKVEIK
notes: humanized
Human 5T4-His protein [2]
  Kd: 0.684 nM
  koff: 0.00012 s⁻¹
  kon: 174000 M⁻¹ s⁻¹
Human 5T4-His protein [3]
  EC50: 0.11 nM

B8: 393E9_hVH5_hVL5 (antibody, V domains shown)
VH: EVQLVESGGGLVQPGRSLRLSCTASGFTFTDYYMSWVRQAPGKGLEWVGFIRNKGNGYTTENSASVKGRFTISRDNSKSILYLQMNSLKTEDTAVYYCARYRGNPHYAMDYWGQGTLVTVSS
VL: EIVLTQSPGTLSLSPGERATLSCRASESVEFYGTSFLQWYQQKPGQAPRLLIYGASNVESGIPDRFSGSGSGTDFTLTISRLEPEDIAVYFCQQSRKVPSTFGGGTKVEIK
notes: humanized
Human 5T4-His protein [2]
  Kd: 0.598 nM
  koff: 0.000121 s⁻¹
  kon: 202000 M⁻¹ s⁻¹
Human 5T4-His protein [3]
  EC50: 0.11 nM

B9: 393E9_hVH2_hVL4 (antibody, V domains shown)
VH: EVQLVESGGGLIQPGGSLRLSCAASGFTFTDYYMSWVRQPPGKGLEWVGFIRNKGNGYTTENSASVKGRFTISRDNSKSTLYLQMNSLRAEDTAVYYCARYRGNPHYAMDYWGQGTLVTVSS
VL: DIVLTQSPLSLPVTPGEPASISCRASESVEFYGTSFLQWYLQKPGQSPQLLIYGASNVESGVPDRFSGSGSGTDFTLKISRVEAEDIGVYFCQQSRKVPSTFGGGTKVEIK
notes: humanized
Human 5T4-His protein [2]
  Kd: 0.65 nM
  koff: 0.000127 s⁻¹
  kon: 195000 M⁻¹ s⁻¹
Human 5T4-His protein [3]
  EC50: 0.12 nM

B10: 393E9_hVH3_hVL4 (antibody, V domains shown)
VH: QVQLVESGGGVVQPGGSLRLSCAASGFTFTDYYMSWVRQAPGKGLEWVGFIRNKGNGYTTENSASVKGRFTISRDNSKSTLYLQMNSLRAEDTAVYYCARYRGNPHYAMDYWGQGTLVTVSS
VL: DIVLTQSPLSLPVTPGEPASISCRASESVEFYGTSFLQWYLQKPGQSPQLLIYGASNVESGVPDRFSGSGSGTDFTLKISRVEAEDIGVYFCQQSRKVPSTFGGGTKVEIK
notes: humanized
Human 5T4-His protein [2]
  Kd: 0.573 nM
  koff: 0.000123 s⁻¹
  kon: 215000 M⁻¹ s⁻¹
Human 5T4-His protein [3]
  EC50: 0.095 nM

B11: 393E9_hVH3_hVL3 (antibody, V domains shown)
VH: QVQLVESGGGVVQPGGSLRLSCAASGFTFTDYYMSWVRQAPGKGLEWVGFIRNKGNGYTTENSASVKGRFTISRDNSKSTLYLQMNSLRAEDTAVYYCARYRGNPHYAMDYWGQGTLVTVSS
VL: DIQLTQSPSSLSASVGDRVTITCRASESVEFYGTSFLQWYQQKPGKAPKLLIYGASNVESGVPSRFSGSGSGTDFTLTISSLQPEDIATYFCQQSRKVPSTFGGGTKVEIK
notes: humanized
Human 5T4-His protein [2]
  Kd: 0.574 nM
  koff: 0.000111 s⁻¹
  kon: 193000 M⁻¹ s⁻¹
Human 5T4-His protein [3]
  EC50: 0.14 nM

B12: 393E9_hVH6_hVL2 (antibody, V domains shown)
VH: EVQLVESGGGLVQPGGSLRLSCAASGFTFTDYYMSWVRQAPGKGLEWVGFIRNKGNGYTTENSASVKGRFTISRDNAKSSLYLQMNSLRAEDTAVYYCARYRGNPHYAMDYWGQGTLVTVSS
VL: EIVLTQSPATLSVSPGERATLSCRASESVEFYGTSFLQWYQQKPGQAPRLLIYGASNVESGIPARFSGSGSGTEFTLTISSLQSEDIAVYFCQQSRKVPSTFGGGTKVEIK
notes: humanized; also called Hu393E9-62
Human 5T4-His protein [2]
  Kd: 0.687 nM
  koff: 0.000137 s⁻¹
  kon: 199000 M⁻¹ s⁻¹
Human 5T4-His protein [3]
  EC50: 0.11 nM

B13: 393E9_hVH5_hVL4 (antibody, V domains shown)
VH: EVQLVESGGGLVQPGRSLRLSCTASGFTFTDYYMSWVRQAPGKGLEWVGFIRNKGNGYTTENSASVKGRFTISRDNSKSILYLQMNSLKTEDTAVYYCARYRGNPHYAMDYWGQGTLVTVSS
VL: DIVLTQSPLSLPVTPGEPASISCRASESVEFYGTSFLQWYLQKPGQSPQLLIYGASNVESGVPDRFSGSGSGTDFTLKISRVEAEDIGVYFCQQSRKVPSTFGGGTKVEIK
notes: humanized
Human 5T4-His protein [2]
  Kd: 0.679 nM
  koff: 0.000125 s⁻¹
  kon: 184000 M⁻¹ s⁻¹
Human 5T4-His protein [3]
  EC50: 0.17 nM

B14: 393E9_hVH6_hVL5 (antibody, V domains shown)
VH: EVQLVESGGGLVQPGGSLRLSCAASGFTFTDYYMSWVRQAPGKGLEWVGFIRNKGNGYTTENSASVKGRFTISRDNAKSSLYLQMNSLRAEDTAVYYCARYRGNPHYAMDYWGQGTLVTVSS
VL: EIVLTQSPGTLSLSPGERATLSCRASESVEFYGTSFLQWYQQKPGQAPRLLIYGASNVESGIPDRFSGSGSGTDFTLTISRLEPEDIAVYFCQQSRKVPSTFGGGTKVEIK
notes: humanized
Human 5T4-His protein [2]
  Kd: 0.574 nM
  koff: 0.000122 s⁻¹
  kon: 212000 M⁻¹ s⁻¹
Human 5T4-His protein [3]
  EC50: 0.19 nM

B15: 393E9_hVH4_hVL3 (antibody, V domains shown)
VH: EVQLVESGGGLVQPGGSLRLSCAASGFTFTDYYMSWVRQAPGKGLEWVGFIRNKGNGYTTENSASVKGRFTISRDNSKSSLYLQMNSLKTEDTAVYYCARYRGNPHYAMDYWGQGTLVTVSS
VL: DIQLTQSPSSLSASVGDRVTITCRASESVEFYGTSFLQWYQQKPGKAPKLLIYGASNVESGVPSRFSGSGSGTDFTLTISSLQPEDIATYFCQQSRKVPSTFGGGTKVEIK
notes: humanized
Human 5T4-His protein [2]
  Kd: 0.706 nM
  koff: 0.000128 s⁻¹
  kon: 181000 M⁻¹ s⁻¹
Human 5T4-His protein [3]
  EC50: 0.13 nM
